Measured values: patent publication US20250258173A1 (FUJIREBIO, published 2025)
Where two headings read alike, the source gives them in different places.

How the values were obtained:
[1] = biological target: T1, recombinant N protein of SARS-CoV-2 (whole length, 419 amino acids) (SARS-CoV-2, UniProt P0DTC9 1-419)
T1 construct: also called SARS-CoV-2 N protein; SARS-CoV-2 nucleocapsid protein

[2] = biological target: T1, recombinant N protein of SARS-CoV-2 …; remark: listed apart in the source
[3] = biological target: T1, recombinant N protein of SARS-CoV-2 …; remark: listed apart in the source
[4] = biological target: T1, recombinant N protein of SARS-CoV-2 …; remark: listed apart in the source

B1: anti-N protein antibody C12 (antibody, V domains shown)
VH: EVQLQESGGGLVRPGGSLKLSCAASGFTFSDYYMYWVRQTPEKRLEWVATISDGGRYSYYPDSVKGRFTVSRDNAKNNLYLQMSSLKSEDTAMYYCVRDRYDGWGSDFDVWGAGTTVTVS
VL: DVQITQSPSSMYASLGERVTITCKASQDIKSYLSWYQQKPWKSPKTLIYYATSLADGVPSRFSGSGSGQDYSLTISSLESDDTATYYCLQHGESPWTFGGGTKLEIKR
B1 was tested, and the “luminescence amount ratio (10 ng/mL/0 ng/mL)” value (from here on “luminescence amount ratio”) [1] was 22.8, the “luminescence amount ratio” value [2] was 847 and the “luminescence amount ratio” value [3] was 1.3. The “luminescence amount ratio” value [4] was 52.8.
